Experimental findings from paper PMC314469, “Protein Interaction Networks by Proteome Peptide Scanning” (PLoS Biology, 2004) are described below.

Common to all, as to assay: SPOT array
Assay [1] addresses T1, Rvs167 SH3 (RV167_YEAST), P39743.
T1 chain: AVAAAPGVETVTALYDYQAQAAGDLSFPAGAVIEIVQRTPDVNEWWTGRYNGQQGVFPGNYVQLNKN

In assay [2] the target is T2, Boi2 SH3 (BOI2_YEAST), P39969.
T2 chain: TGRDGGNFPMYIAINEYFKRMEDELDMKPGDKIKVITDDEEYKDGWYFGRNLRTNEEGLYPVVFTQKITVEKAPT

Assay [3] concerns the target T3, Boi1 SH3 (BOI1_YEAST), P38041.
T3 chain: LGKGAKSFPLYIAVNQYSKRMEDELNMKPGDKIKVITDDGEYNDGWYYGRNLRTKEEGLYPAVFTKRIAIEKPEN

Assay [4] addresses T4, Yfr024 SH3 (LSB3_YEAST), P43603.
T4 chain: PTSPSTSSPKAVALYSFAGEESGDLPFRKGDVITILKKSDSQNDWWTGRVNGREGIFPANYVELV

Assay [5] has as its target T5, Yhr016c SH3 (YSC84_YEAST), P32793.
T5 chain: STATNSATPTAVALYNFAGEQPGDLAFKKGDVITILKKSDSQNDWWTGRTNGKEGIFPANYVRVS

For LTSPKNPIKSVTKF [YDR172W 569-582], the normalised SPOT signal, Boehringer light units (BLU); mean over the file's lines of this peptide in assay [1] was found to be 96.1; in assay [2], 25.9; in assay [3], 547; in assay [4], 227; in assay [5], 40.3.

For LTSPFEPPKPKTKH [YJR064W 272-285], the normalised SPOT signal, Boehringer light units (BLU); mean over the file's lines of this peptide in assay [1] is 8.1; in assay [2] it was 33.7; in assay [3] it was 188; in assay [4] it was 82.2; in assay [5], 149.

For MAAPPVPPKQSQED [YPL084W 790-803], the normalised SPOT signal, Boehringer light units (BLU); mean over the file's lines of this peptide in assay [1] was 52.4; in assay [2], 40.6; in assay [3], 84.2; in assay [4], 4570; in assay [5], 279.

Turning to LSTPSAPAKINNYS [YDR109C 605-618], the normalised SPOT signal, Boehringer light units (BLU); mean over the file's lines of this peptide was found to be 30.6 in assay [1]; 37.9 in assay [2]; 18.3 in assay [3]; 174 in assay [4]; 144 in assay [5].

Regarding LVTPEEPAKNKSER [YDL129W 13-26], the normalised SPOT signal, Boehringer light units (BLU); mean over the file's lines of this peptide came out at 78.8 in assay [1]; 74.6 in assay [2]; 126 in assay [3]; 49.1 in assay [4]; 69.6 in assay [5].

In the case of LSSPNVPGKPQVAY [YKL216W 131-144], the normalised SPOT signal, Boehringer light units (BLU); mean over the file's lines of this peptide is 1.5 in assay [1]; 43.1 in assay [2]; 67.9 in assay [3]; 201 in assay [4]; 77.3 in assay [5].

As for LVIPSTPSKKSKYS [YOR315W 23-36], the normalised SPOT signal, Boehringer light units (BLU); mean over the file's lines of this peptide was determined as 32.2 in assay [1]; 37.5 in assay [2]; 94.8 in assay [3]; 627 in assay [4]; 95.7 in assay [5].

In the case of LSKPSKPLKEIRFD [YAR003W 101-114], the normalised SPOT signal, Boehringer light units (BLU); mean over the file's lines of this peptide came to 82.7 in assay [1]; 63 in assay [2]; 233 in assay [3]; 586 in assay [4]; 227 in assay [5].

On to LSLPRLPNKHHWPL [YAR068W 116-129], for which the normalised SPOT signal, Boehringer light units (BLU); mean over the file's lines of this peptide in assay [1] is 252; in assay [2], 44.9; in assay [3], 197; in assay [4], 27100; in assay [5], 2000.

For the molecule LWQPVDPSREDLVI [YLR301W 128-141], the normalised SPOT signal, Boehringer light units (BLU); mean over the file's lines of this peptide in assay [1] was 0.8; in assay [2] it was 51.5; in assay [3], 49.2; in assay [4] it was 179; in assay [5] it was 139.

LWIPDDPSKARFLS [YJR152W 267-280]: the normalised SPOT signal, Boehringer light units (BLU); mean over the file's lines of this peptide in assay [1] came out at 36.6; in assay [2] it was 25.2; in assay [3], 63.1; in assay [4], 561; in assay [5], 200.

Take LSSPSLPPKVNATN [YEL042W 325-338]: the normalised SPOT signal, Boehringer light units (BLU); mean over the file's lines of this peptide in assay [1] was found to be 34.7; in assay [2] it was 22; in assay [3], 113; in assay [4], 3210; in assay [5] it was 92.2.

Consider LVQPNVPEKHNMST [YHL002W 144-157], for which the normalised SPOT signal, Boehringer light units (BLU); mean over the file's lines of this peptide in assay [1] was found to be 44.1; in assay [2], 48.3; in assay [3], 52.4; in assay [4], 94.6; in assay [5], 107.

Take LVQPVVPDKVFSFR [YER036C 368-381]: the normalised SPOT signal, Boehringer light units (BLU); mean over the file's lines of this peptide came to 63.5 in assay [1]; 52 in assay [2]; 124 in assay [3]; 311 in assay [4]; 370 in assay [5].

As for LRSPNTPRRLRKTL [YDR545W 312-325], the normalised SPOT signal, Boehringer light units (BLU); mean over the file's lines of this peptide in assay [1] was determined as 2540; in assay [2], 322; in assay [3], 236; in assay [4], 21100; in assay [5] it was 3240.

Consider LTLPFGPVKSIWLS [YGR227W 189-202], for which the normalised SPOT signal, Boehringer light units (BLU); mean over the file's lines of this peptide in assay [1] is 17.2; in assay [2], 41.5; in assay [3], 5.9; in assay [4], 36.6; in assay [5], 297.

Regarding LYKPGMPPRPHFIT [YNL045W 494-507], the normalised SPOT signal, Boehringer light units (BLU); mean over the file's lines of this peptide in assay [1] came out at 34.7; in assay [2], 60.6; in assay [3], 25.6; in assay [4] it was 899; in assay [5], 326.

Take LRSPQNPNRMTAVI [YPL115C 235-248]: the normalised SPOT signal, Boehringer light units (BLU); mean over the file's lines of this peptide in assay [1] was determined as 20.7; in assay [2], 49; in assay [3], 55.6; in assay [4] it was 1210; in assay [5] it was 155.

Consider LRRPIFPGRDYRHQ [YBL016W 218-231], for which the normalised SPOT signal, Boehringer light units (BLU); mean over the file's lines of this peptide in assay [1] is 947; in assay [2], 234; in assay [3], 825; in assay [4], 8010; in assay [5], 1090.
